{"source": "paper PMC3797037", "about": "“Structural and Mechanistic Insight into DNA Unwinding by Deinococcus radiodurans UvrD” (PLoS ONE, 2013)", "key": {"[1]": {"molecular_target": "T1, drUvrD G426T (Deinococcus radiodurans, UniProt Q9RTI9 1-745, G426T)", "T1 sequence": "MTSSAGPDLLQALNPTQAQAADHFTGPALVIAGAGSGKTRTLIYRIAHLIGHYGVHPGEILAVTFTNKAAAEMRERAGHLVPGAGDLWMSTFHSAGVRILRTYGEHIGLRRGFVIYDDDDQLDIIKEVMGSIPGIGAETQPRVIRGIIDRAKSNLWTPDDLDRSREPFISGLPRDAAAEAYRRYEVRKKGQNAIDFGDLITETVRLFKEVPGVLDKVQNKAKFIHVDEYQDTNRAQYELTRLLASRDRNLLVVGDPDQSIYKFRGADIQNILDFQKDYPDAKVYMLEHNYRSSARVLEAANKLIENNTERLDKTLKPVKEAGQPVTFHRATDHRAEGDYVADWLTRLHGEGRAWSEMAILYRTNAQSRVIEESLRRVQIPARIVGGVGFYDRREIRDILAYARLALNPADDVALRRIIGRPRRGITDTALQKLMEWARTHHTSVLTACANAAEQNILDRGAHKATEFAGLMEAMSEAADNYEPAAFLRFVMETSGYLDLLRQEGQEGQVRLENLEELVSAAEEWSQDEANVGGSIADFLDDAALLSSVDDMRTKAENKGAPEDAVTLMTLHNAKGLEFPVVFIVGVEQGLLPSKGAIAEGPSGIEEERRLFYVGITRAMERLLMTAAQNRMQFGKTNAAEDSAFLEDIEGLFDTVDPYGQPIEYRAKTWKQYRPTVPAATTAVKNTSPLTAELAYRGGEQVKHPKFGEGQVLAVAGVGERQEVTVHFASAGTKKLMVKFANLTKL", "assay": "fluorescence anisotropy; 1 mM AMPPNP; not significantly different from WT; Fluorescence anisotropy: buffer A (composition not in material) + 0.05% Tween 20, 0.1 mg/mL BSA, 1 mM AMPPNP; 2.5 nM DNA, 0-8 µM protein, 80 µl, room temperature; single-site fit", "details": "protein: recombinant, tags: N-terminal His-tag cleaved with TEV (pET151d), label: fluorescein (internal dT12), 25 bp duplex, other end blunt"}, "[2]": {"molecular_target": "T2, drUvrD FL (WT) (Deinococcus radiodurans, UniProt Q9RTI9 1-745)", "T2 sequence": "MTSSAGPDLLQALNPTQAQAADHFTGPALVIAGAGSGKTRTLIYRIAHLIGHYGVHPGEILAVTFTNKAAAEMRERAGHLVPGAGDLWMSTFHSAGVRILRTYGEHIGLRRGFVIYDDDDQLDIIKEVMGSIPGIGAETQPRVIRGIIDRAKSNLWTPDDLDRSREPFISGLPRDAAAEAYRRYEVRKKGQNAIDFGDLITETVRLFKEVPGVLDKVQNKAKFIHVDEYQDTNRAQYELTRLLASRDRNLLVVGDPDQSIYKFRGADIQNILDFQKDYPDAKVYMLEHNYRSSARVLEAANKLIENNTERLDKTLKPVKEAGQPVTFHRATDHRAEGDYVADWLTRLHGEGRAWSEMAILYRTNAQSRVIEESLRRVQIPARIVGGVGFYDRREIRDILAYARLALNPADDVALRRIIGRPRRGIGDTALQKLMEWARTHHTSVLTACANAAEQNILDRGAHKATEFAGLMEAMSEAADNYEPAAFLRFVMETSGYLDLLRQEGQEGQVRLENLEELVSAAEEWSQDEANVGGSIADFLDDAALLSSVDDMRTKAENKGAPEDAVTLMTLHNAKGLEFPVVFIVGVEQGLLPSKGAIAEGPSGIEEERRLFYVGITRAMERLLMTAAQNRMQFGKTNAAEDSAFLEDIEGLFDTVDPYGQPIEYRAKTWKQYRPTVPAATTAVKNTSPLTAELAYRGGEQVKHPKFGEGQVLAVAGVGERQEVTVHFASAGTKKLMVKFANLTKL", "assay": "fluorescence anisotropy; 1 mM AMPPNP; Fluorescence anisotropy: buffer A (composition not in material) + 0.05% Tween 20, 0.1 mg/mL BSA, 1 mM AMPPNP; 2.5 nM DNA, 0-8 µM protein, 80 µl, room temperature; single-site fit", "details": "protein: recombinant, tags: N-terminal His-tag cleaved with TEV (pET151d), label: fluorescein (internal dT12), 25 bp duplex, other end blunt"}, "[3]": {"substrate": "Nc1ncnc2c1ncn2[C@@H]1O[C@H](COP(=O)(O)OP(=O)(O)OP(=O)(O)O)[C@@H](O)[C@H]1O", "assay": "spectrophotometric ATPase assay", "assay_type": "biochemical, Deinococcus radiodurans", "details": "ssDNA-stimulated: excess 25mer polydT (10xKssDNA), ATP 0-1 mM, 100 nM enzyme, 5 mM MgCl2, 100 mM NaCl, pH 8.0, 25°C", "text": "spectrophotometric ATPase assay on drUvrD^FL | determine their apparent turnover rates (Kcat) for ATP hydrolysis, along with their Km for ATP"}, "[4]": {"molecular_target": "T3, drUvrDΔC (Deinococcus radiodurans, UniProt Q9RTI9 1-665, del666-745)", "T3 sequence": "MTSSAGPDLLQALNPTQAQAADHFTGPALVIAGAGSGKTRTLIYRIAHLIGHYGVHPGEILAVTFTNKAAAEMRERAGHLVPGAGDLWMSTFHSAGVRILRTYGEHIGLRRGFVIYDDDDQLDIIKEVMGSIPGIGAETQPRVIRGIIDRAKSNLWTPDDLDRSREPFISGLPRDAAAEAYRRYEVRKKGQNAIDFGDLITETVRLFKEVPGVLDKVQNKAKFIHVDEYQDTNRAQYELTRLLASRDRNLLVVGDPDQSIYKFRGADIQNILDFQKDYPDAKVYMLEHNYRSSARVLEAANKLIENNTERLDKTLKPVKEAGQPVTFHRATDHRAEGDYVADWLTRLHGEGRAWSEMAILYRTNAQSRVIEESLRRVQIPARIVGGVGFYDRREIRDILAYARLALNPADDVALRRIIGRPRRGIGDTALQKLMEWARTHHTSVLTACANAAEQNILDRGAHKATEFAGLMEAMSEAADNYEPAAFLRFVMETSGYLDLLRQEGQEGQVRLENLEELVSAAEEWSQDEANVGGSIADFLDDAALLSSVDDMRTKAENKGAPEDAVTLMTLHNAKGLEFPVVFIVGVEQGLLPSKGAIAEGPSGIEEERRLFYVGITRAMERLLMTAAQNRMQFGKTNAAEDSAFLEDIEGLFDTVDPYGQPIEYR", "assay": "X-ray crystallography (3.0 Å); fluorescein-dT21 DNA; Fluorescence anisotropy: buffer A (composition not in material) + 0.05% Tween 20, 0.1 mg/mL BSA, 1 mM AMPPNP; 2.5 nM DNA, 0-8 µM protein, 80 µl, room temperature; single-site fit", "details": "protein: recombinant; tags: N-terminal His-tag cleaved with TEV (pET151d); chain copies: 2; label: fluorescein (internal dT21); 18 bp duplex, 3' overhang 7 nt at both ends"}, "[5]": {"molecular_target": "T3, drUvrDΔC", "assay": "X-ray crystallography (2.5 Å); AMPPNP, form I, P212121; Fluorescence anisotropy: buffer A (composition not in material) + 0.05% Tween 20, 0.1 mg/mL BSA, 1 mM AMPPNP; 2.5 nM DNA, 0-8 µM protein, 80 µl, room temperature; single-site fit", "details": "protein: recombinant; tags: N-terminal His-tag cleaved with TEV (pET151d); chain copies: 2; 18 bp duplex, 3' overhang 7 nt (dT7) at both ends"}, "[6]": {"molecular_target": "T2, drUvrD FL (WT)", "assay": "X-ray crystallography (4.0 Å); AMPPNP, P21; Fluorescence anisotropy: buffer A (composition not in material) + 0.05% Tween 20, 0.1 mg/mL BSA, 1 mM AMPPNP; 2.5 nM DNA, 0-8 µM protein, 80 µl, room temperature; single-site fit", "details": "protein: recombinant; tags: N-terminal His-tag cleaved with TEV (pET151d); 21 bp duplex, 3' overhang 7 nt (dT7) at both ends"}, "[7]": {"substrate": "Nc1ncnc2c1ncn2[C@@H]1O[C@H](COP(=O)(O)OP(=O)(O)OP(=O)(O)O)[C@@H](O)[C@H]1O", "assay": "spectrophotometric ATPase assay", "assay_type": "biochemical, Deinococcus radiodurans", "details": "ssDNA-stimulated: excess 25mer polydT (10xKssDNA), ATP 0-1 mM, 100 nM enzyme, 5 mM MgCl2, 100 mM NaCl, pH 8.0, 25°C", "text": "spectrophotometric ATPase assay on drUvrD^∆C | ATPase data measured on drUvrD^FL and drUvrD^∆C", "remark": "listed apart in the source"}, "[8]": {"details": "3' overhang 15 nt (dT15) on strand 2"}, "[9]": {"details": "5' overhang 15 nt (dT15) on strand 2"}}}
{"binder": "3'-tailed dsDNA (H1T12/H3-15) (dsDNA, fluorescein-dT at position 12 of strand 1) DNA 1: TCGGTACGACCTGCGAGCACTGCTT DNA 2: AAGCAGTGCTCGCAGGTCGTACCGATTTTTTTTTTTTTTT", "values": [{"measurement": "binding result", "setting": "[1]; [8]", "result": "binds"}, {"measurement": "Kd", "setting": "[2]; [8]", "result": 360, "unit": "nM"}]}
{"binder": "drUvrD^FL (Deinococcus radiodurans R1 = ATCC 13939 = DSM 20539) (protein, full-length (residues to 745), pET151d, E. coli BL21 (DE3), N-terminal His-tag cut with TEV protease; crystallized as a monomer, two per DNA duplex) MTSSAGPDLLQALNPTQAQAADHFTGPALVIAGAGSGKTRTLIYRIAHLIGHYGVHPGEILAVTFTNKAAAEMRERAGHLVPGAGDLWMSTFHSAGVRILRTYGEHIGLRRGFVIYDDDDQLDIIKEVMGSIPGIGAETQPRVIRGIIDRAKSNLWTPDDLDRSREPFISGLPRDAAAEAYRRYEVRKKGQNAIDFGDLITETVRLFKEVPGVLDKVQNKAKFIHVDEYQDTNRAQYELTRLLASRDRNLLVVGDPDQSIYKFRGADIQNILDFQKDYPDAKVYMLEHNYRSSARVLEAANKLIENNTERLDKTLKPVKEAGQPVTFHRATDHRAEGDYVADWLTRLHGEGRAWSEMAILYRTNAQSRVIEESLRRVQIPARIVGGVGFYDRREIRDILAYARLALNPADDVALRRIIGRPRRGIGDTALQKLMEWARTHHTSVLTACANAAEQNILDRGAHKATEFAGLMEAMSEAADNYEPAAFLRFVMETSGYLDLLRQEGQEGQVRLENLEELVSAAEEWSQDEANVGGSIADFLDDAALLSSVDDMRTKAENKGAPEDAVTLMTLHNAKGLEFPVVFIVGVEQGLLPSKGAIAEGPSGIEEERRLFYVGITRAMERLLMTAAQNRMQFGKTNAAEDSAFLEDIEGLFDTVDPYGQPIEYRAKTWKQYRPTVPAATTAVKNTSPLTAELAYRGGEQVKHPKFGEGQVLAVAGVGERQEVTVHFASAGTKKLMVKFANLTKL", "values": [{"measurement": "Km", "setting": "[3]", "result": "62.1 ± 6.6", "unit": "µM"}, {"measurement": "kcat", "setting": "[3]", "result": "149.3 ± 3.5", "unit": "s⁻¹"}]}
{"binder": "For25-21F/Rev25-21F (dsDNA, fluorescein-dT at position 21 of both strands) DNA 1: GCAGTGCTCGCAGGTCGTTTTTTTT DNA 2: ACGACCTGCGAGCACTGCTTTTTTT", "values": [{"measurement": "binding result", "setting": "[4]", "result": "binds"}]}
{"binder": "For25/Rev25 (dsDNA) DNA 1: GCAGTGCTCGCAGGTCGTTTTTTTT DNA 2: ACGACCTGCGAGCACTGCTTTTTTT", "values": [{"measurement": "binding result", "setting": "[5]", "result": "binds"}]}
{"binder": "For28/Rev28 (dsDNA) DNA 1: GCAGTGCTCGCAGGTCGTACCTTTTTTT DNA 2: GGTACGACCTGCGAGCACTGCTTTTTTT", "values": [{"measurement": "binding result", "setting": "[6]", "result": "binds"}]}
{"binder": "drUvrD^∆C (Deinococcus radiodurans R1 = ATCC 13939 = DSM 20539) (protein, C-terminally truncated, missing residues 666-745; pET151d, E. coli BL21 (DE3), N-terminal His-tag cut with TEV protease; crystallized as a monomer, two per DNA duplex) MTSSAGPDLLQALNPTQAQAADHFTGPALVIAGAGSGKTRTLIYRIAHLIGHYGVHPGEILAVTFTNKAAAEMRERAGHLVPGAGDLWMSTFHSAGVRILRTYGEHIGLRRGFVIYDDDDQLDIIKEVMGSIPGIGAETQPRVIRGIIDRAKSNLWTPDDLDRSREPFISGLPRDAAAEAYRRYEVRKKGQNAIDFGDLITETVRLFKEVPGVLDKVQNKAKFIHVDEYQDTNRAQYELTRLLASRDRNLLVVGDPDQSIYKFRGADIQNILDFQKDYPDAKVYMLEHNYRSSARVLEAANKLIENNTERLDKTLKPVKEAGQPVTFHRATDHRAEGDYVADWLTRLHGEGRAWSEMAILYRTNAQSRVIEESLRRVQIPARIVGGVGFYDRREIRDILAYARLALNPADDVALRRIIGRPRRGIGDTALQKLMEWARTHHTSVLTACANAAEQNILDRGAHKATEFAGLMEAMSEAADNYEPAAFLRFVMETSGYLDLLRQEGQEGQVRLENLEELVSAAEEWSQDEANVGGSIADFLDDAALLSSVDDMRTKAENKGAPEDAVTLMTLHNAKGLEFPVVFIVGVEQGLLPSKGAIAEGPSGIEEERRLFYVGITRAMERLLMTAAQNRMQFGKTNAAEDSAFLEDIEGLFDTVDPYGQPIEYR", "values": [{"measurement": "Km", "setting": "[7]", "result": "77.0 ± 16.9", "unit": "µM"}, {"measurement": "kcat", "setting": "[7]", "result": "213.2 ± 11.7", "unit": "s⁻¹"}]}
{"binder": "5'-tailed dsDNA (H1T12/H5-15) (dsDNA, fluorescein-dT at position 12 of strand 1) DNA 1: TCGGTACGACCTGCGAGCACTGCTT DNA 2: TTTTTTTTTTTTTTTAAGCAGTGCTCGCAGGTCGTACCGA", "values": [{"measurement": "binding result", "setting": "[1]; [9]", "result": "binds"}, {"measurement": "Kd", "setting": "[2]; [9]", "result": 480, "unit": "nM"}]}
